Two molecules from article PMC10397247 can be followed below.

One test concerns the target T1, P7.
T1 chain: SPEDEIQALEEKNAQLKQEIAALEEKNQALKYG
The experiment in a line: two-hybrid library CC1.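 Also: natural log of median RNA to DNA barcode read ratio; higher means stronger binding.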 To be noted: mean of both orientations.

A further test addresses T2, P9.
T2 chain: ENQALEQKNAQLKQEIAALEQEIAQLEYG
The experiment in a line: two-hybrid library CC1.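 Also: natural log of median RNA to DNA barcode read ratio; higher means stronger binding.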 The note with it: mean of both orientations.

The target of another test is T3, P8mS.
T3 chain: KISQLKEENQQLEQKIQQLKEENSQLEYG
The experiment in a line: two-hybrid library CC1.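 Also: natural log of median RNA to DNA barcode read ratio; higher means stronger binding.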 To be noted: mean of both orientations.

The target of a further test is T4, P6SC2.
T4 chain: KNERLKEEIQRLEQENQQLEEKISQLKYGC
The test is described as follows: two-hybrid library CC1.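 Also: natural log of median RNA to DNA barcode read ratio; higher means stronger binding.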

A further test concerns the target T5, P8.
T5 chain: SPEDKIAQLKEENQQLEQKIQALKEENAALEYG
The experiment in a line: two-hybrid library CC1.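 Also: natural log of median RNA to DNA barcode read ratio; higher means stronger binding.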 To be noted: mean of both orientations.

The target in the next test is T6, P7mS.
T6 chain: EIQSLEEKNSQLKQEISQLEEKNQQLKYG
The experiment in a line: two-hybrid library CC1.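 Also: natural log of median RNA to DNA barcode read ratio; higher means stronger binding.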 The note with it: mean of both orientations.

Another test has as its target T7, P6mS.
T7 chain: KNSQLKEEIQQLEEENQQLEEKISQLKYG
The experiment in a line: two-hybrid library CC1. To be noted: mean of both orientations.

The target in the next test is T8, 4H982-AA.
T8 chain: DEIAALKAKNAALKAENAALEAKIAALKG
The experiment in a line: two-hybrid library CCmax. To be noted: mean of both orientations.

A further test deals with T9, 4H3865-AA.
T9 chain: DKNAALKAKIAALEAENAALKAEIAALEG
The test is described as follows: two-hybrid library CCmax. The note with it: mean of both orientations.

In another test the target is T10, 4H3162-AA.
T10 chain: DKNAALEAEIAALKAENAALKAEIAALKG
The experiment in a line: two-hybrid library CCmax. To be noted: mean of both orientations.

Another test has as its target T11, 4H3133-AA.
T11 chain: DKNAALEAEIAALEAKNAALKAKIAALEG
The experiment in a line: two-hybrid library CCmax. To be noted: mean of both orientations.

A further test deals with T12, 4H3606-AA.
T12 chain: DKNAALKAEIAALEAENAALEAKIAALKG
The test is described as follows: two-hybrid library CCmax. The note with it: mean of both orientations.

The target of the next test is T13, 4H3056-AA.
T13 chain: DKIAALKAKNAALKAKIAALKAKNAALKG
The experiment in a line: two-hybrid library CCmax. The note with it: mean of both orientations.

A further test has as its target T14, 4H2620-AA.
T14 chain: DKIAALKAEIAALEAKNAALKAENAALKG
The experiment in a line: two-hybrid library CCmax. To be noted: mean of both orientations.

In a further test the target is T15, 4H2611-AA.
T15 chain: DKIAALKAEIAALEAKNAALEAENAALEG
The test is described as follows: two-hybrid library CCmax. To be noted: mean of both orientations.

A further test has as its target T16, 4H3631-AA.
T16 chain: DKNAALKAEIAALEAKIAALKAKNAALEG
The experiment in a line: two-hybrid library CCmax. The note with it: mean of both orientations.

A further test concerns the target T17, 4H32-AA.
T17 chain: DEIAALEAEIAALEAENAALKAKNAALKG
The experiment in a line: two-hybrid library CCmax. The note with it: mean of both orientations.

Another test deals with T18, 4H384-AA.
T18 chain: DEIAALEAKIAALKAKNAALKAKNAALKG
The test is described as follows: two-hybrid library CCmax. The note with it: mean of both orientations.

Another test has as its target T19, 4H2648-AA.
T19 chain: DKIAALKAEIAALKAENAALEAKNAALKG
The test is described as follows: two-hybrid library CCmax. To be noted: mean of both orientations.

Another test concerns the target T20, 4H3718-AA.
T20 chain: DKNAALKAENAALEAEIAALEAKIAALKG
The experiment in a line: two-hybrid library CCmax. The note with it: mean of both orientations.

A further test concerns the target T21, 4H3697-AA.
T21 chain: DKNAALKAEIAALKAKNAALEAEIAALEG
The experiment in a line: two-hybrid library CCmax. The note with it: mean of both orientations.

The target of the next test is T22, 4H3378-AA.
T22 chain: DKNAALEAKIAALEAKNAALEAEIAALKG
The test is described as follows: two-hybrid library CCmax. To be noted: mean of both orientations.

For a further test, the target named is T23, 4H3413-AA.
T23 chain: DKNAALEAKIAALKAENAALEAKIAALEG
The test is described as follows: two-hybrid library CCmax. The note with it: mean of both orientations.

The target in a further test is T24, 4H697-AA.
T24 chain: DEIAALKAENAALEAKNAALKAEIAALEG
The test is described as follows: two-hybrid library CCmax. The note with it: mean of both orientations.

The target in the next test is T25, 4H2553-AA.
T25 chain: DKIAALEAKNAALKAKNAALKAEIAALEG
The experiment in a line: two-hybrid library CCmax.

A further test has as its target T26, 4H2907-AA.
T26 chain: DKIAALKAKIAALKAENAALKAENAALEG
The experiment in a line: two-hybrid library CCmax. The note with it: mean of both orientations.

Another test has as its target T27, 4H3588-AA.
T27 chain: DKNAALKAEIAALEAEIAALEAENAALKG
The test is described as follows: two-hybrid library CCmax. To be noted: mean of both orientations.

Another test addresses T28, 4H340-AA.
T28 chain: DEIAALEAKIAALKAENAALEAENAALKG
The experiment in a line: two-hybrid library CCmax. To be noted: mean of both orientations.

Regarding KNERLKEEIQRLEQENQQLEEKISQLKYGC [P6SC2], the interaction score with P7 was 0.0928; in the test with P9 it was -1.47; with P8mS, -2.54; in the test with P6SC2 it was -2.13; with P8, -1.84; in the test with P7mS, -1.75. For the same molecule, the interaction score with P6mS was -2.75.
As to DKIAALEAKNAALKAKNAALKAEIAALEG [4H2553-AA], the interaction score in the test with 4H982-AA was 1.15; with 4H3865-AA, -1.79; in the test with 4H3162-AA it was -1.5; with 4H3133-AA it was -2.05; in the test with 4H3606-AA, 1.86; with 4H3056-AA, -1.68. Further, the interaction score is -1.7 with 4H2620-AA; -1.68 in the test with 4H2611-AA; -1.73 in the test with 4H3631-AA; -0.574 with 4H32-AA; -1.95 with 4H384-AA; -0.498 with 4H2648-AA. The interaction score with 4H3718-AA was 1.12; with 4H3697-AA it was -2.21; with 4H3378-AA, -1.98; with 4H3413-AA, -1.58; with 4H697-AA, -1; in the test with 4H2553-AA it was -1.66. The interaction score with 4H2907-AA was -1.73; with 4H3588-AA, -1.93; with 4H340-AA, -0.687.
